Patent US20030124132A1 (University of Texas, published 2003)

Experiments:
[1] = target: I-A^d MHC Class II antigen (mouse) (UniProt P04228); experiment: FACS
[2] = target: I-A^d MHC Class II antigen (mouse) (UniProt P04228); experiment: cell-based or functional assay
[3] = test system: human umbilical vein endothelial cells (HUVEC); conditions: cited from earlier work
[4] = test system: bEnd.3 endothelial cells; experiment: PS surface expression on endothelial cells exposed to H2O2 (anti-PS IgM staining); assay type: cell-based, mouse
Method: (§1) Mouse bEnd.3 endothelial cells were seeded at an initial density of 50,000 cells/well. Twenty-fours later cells were incubated with increasing concentrations of H2O2 (from 10 μM to 500 μM) for 1 hour at 37° C. or left untreated. At the end of the incubation, cells were washed 3 times with PBS containing 0.2% gelatin and fixed with 0.25% glutaraldehyde. Identical wells were either stained with anti-PS IgM or trypsinized and evaluated for viability by the Trypan Blue exclusion test. For the anti-PS staining, after blocking with 2% gelatin for 10 min., cells were incubated with 2 μg/ml of anti-PS antibody, followed by detection with anti-mouse IgM-HRP conjugate.

[5] = test system: bEnd.3 endothelial cells; experiment: Viability of endothelial cells exposed to H2O2 (Trypan Blue exclusion); assay type: cell-based, mouse
Method: as §1

[6] = test system: TNFα; conditions: cited from earlier work
[7] = test system: cancer patients having progressive disease; conditions: progressive disease before treatment; cited from earlier work
[8] = test system: tissue factor on HUVEC cells; experiment: FACS analysis of tissue factor expression on endothelial cells; assay type: cell-based, human; conditions: TNFα 500 U/ml, LPS 10 μg/ml, VEGF 1 nM, alone or in combination, 6 h
Method: To analyze tissue factor expression on the surface of endothelial cells, HUVEC cells were incubated with TNFα (500 U/ml), LPS (10 μg/ml) or vascular endothelial growth factor (VEGF, 1 nM) alone or in combination for 6 h at 37°. Cells were then detached and stained for surface expression of human tissue factor with a sheep-anti-human tissue factor antibody (Haemochrom, Essen, Germany) and an appropriate FITC-conjugated secondary antibody. Fluorescent cells were detected on a flow cytometer (Becton Dickinson, San Jose, Calif.).

[9] = test system: A20 lymphoma cells (I-A^d positive), mouse or human plasma; experiment: In vitro coagulation assay on A20 cells with capture bispecific antibody B21-2/10H10; assay type: cell-based; conditions: for concentration at which plasma coagulated in 50 seconds: bound via B21-2/10H10 to A20 cells, separate studies per block; for coagulation inducing activity lower than reference: versus monomer / unconjugated form or tTF219
[10] = test system: L540 Hodgkin tumor blood vessels; experiment: Annexin V inhibition of coaguligand-induced thrombosis in vivo; parameters: species or system SCID mice; conditions: 100 μg Annexin V alone or 2 hours before 40 μg coaguligand
Method: The ability of Annexin V to inhibit coaguligand-induced thrombosis in vivo was examined in L540 Hodgkin-bearing SCID mice.
Four hours after the last injection mice were anesthetized and perfused with heparinized saline. Tumors were removed, fixed with 4% formalin, paraffin-embedded and stained with hematoxylene-eosin. The number of thrombosed and non-thrombosed blood vessels were counted and the percentage of thrombosis was calculated.
Groups of tumor-bearing mice were treated with one of the control or test reagents. […] Identical results were obtained in both mice per group.

[11] = test system: IL-1α-stimulated bEnd.3 cells; experiment: Chromogenic assay of Factor Xa formation by cell-bound coaguligand, with Annexin V; assay type: cell-based, mouse; conditions: Annexin V 10 μg per ml
Method: The ability of Annexin V to affect Factor Xa formation induced by coaguligand was determined by a chromogenic assay. […] Annexin V was added at concentrations ranging from 0.1 to 10 μg/ml and cells were incubated for 30 min. before addition of diluted Proplex T. The amount of Factor Xa generated in the presence or absence of Annexin V was determined. Each treatment was performed in duplicate and repeated at least twice.

[12] = target: T1, tissue factor on the surface of stimulated 2F2B mouse endothelial cells (mouse, UniProt P20352 29-294); experiment: FACS on 2F2B mouse endothelial cells stimulated with LPS or TNF alpha, detection with sheep anti-human TF antibody; also a cell bound coagulation assay
T1 construct: whole, on cells; also called cell-surface tissue factor; endogenous TF
T1 sequence (looked up): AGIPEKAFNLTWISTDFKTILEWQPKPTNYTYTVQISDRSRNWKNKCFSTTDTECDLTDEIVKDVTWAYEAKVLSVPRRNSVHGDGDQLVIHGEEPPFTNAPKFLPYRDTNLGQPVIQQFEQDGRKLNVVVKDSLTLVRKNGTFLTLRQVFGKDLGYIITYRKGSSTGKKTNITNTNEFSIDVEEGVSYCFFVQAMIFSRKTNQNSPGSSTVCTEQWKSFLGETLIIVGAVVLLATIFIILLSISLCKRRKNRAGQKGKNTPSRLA

[13] = test system: Factor X to Xa conversion on A20 cells; experiment: Factor Xa production assay on A20 cells; assay type: cell-based, mouse; conditions: Factors II, VII, IX and X present

Molecule B21-2 anti-I-A^d antibody has a fold higher affinity than M5/114.15.2 [1] of 5 to 10 fold.

For B21-2/10H10 bispecific antibody, the time for fibrin strands to form after adding mouse plasma to A20 cells [2] was 36 s.

In the case of OO [H2O2], the viability ([3]; 15 μM H2O2) is listed as 90 to 95%, the viable cells ([3]; 1500 μM H2O2) is listed as 0%-50% and the “cells with PS at the cell surface” value ([4]; H2O2 as low as 20 μM (lower than 100 μM)) is listed as “about 50%”. The “cells with PS translocation” value ([4]; H2O2 higher than 100 μM, 1 hour) was roughly 90%, the cell viability ([5]; H2O2 higher than 100 μM) was 50-60% and the cell viability ([5]; low levels of H2O2, identical to untreated cells) was 95%.

In the case of Cc1ccc2c(=O)c3cccc(CC(=O)O)c3oc2c1C [DMXAA], the “less effective than endotoxin in inducing TNFα” value [6] is listed as 20 fold.

In the case of NC(=O)c1nnn(Cc2cc(Cl)c(C(=O)c3ccc(Cl)cc3)c(Cl)c2)c1N [CAI, carboxyamidotriazole], the “cancer patients with disease stabilization” value [7] is given as 49%.

In the case of VEGF, the “tissue factor expression on the surface of HUVEC” value [8] is reported as “upregulated tissue factor expression”.

B1: tTF220-cys-C′: H6-tTF220-cys-C′ without the (His)6 tag (protein)
chain: GSGTTNTVAAYNLTWKSTNFKTILEWEPKPVNQVYTVQISTKSGDWKSKCFYTTDTECDLTDEIVKDVKQTYLARVFSYPAGNVESTGSAGEPLYENSPEFTPYLETNLGQPTIQSFEQVGTKVNVTVEDERTLVRRNNTFLSLRDVFGKDLIYTLYYWKSSSSGKKTAKTNTNEFLIDVDKGENYCFSVQAVIPSRTVNRKSTDSPVECMGQEKGEFREIC
With B1 the “concentration at which plasma coagulated in 50 seconds” value (from here on “concentration”) [9] was 0.5 nM.

B2: Annexin V: binds to PS with high affinity (protein, UniProt P08758 2-320, looked up)
Annexin A5: AQVLRGTVTDFPGFDERADAETLRKAMKGLGTDEESILTLLTSRSNAQRQEISAAFKTLFGRDLLDDLKSELTGKFEKLIVALMKPSRLYDAYELKHALKGAGTNEKVLTEIIASRTPEELRAIKQVYEEEYGSSLEDDVVGDTSGYYQRMLVVLLQANRDPDAGIDEAQVEQDAQALFQAGELKWGTDEEKFITIFGTRSVSHLRKVFDKYMTISGFQIEETIDRETSGNLEQLLLAVVKSIRSIPAYLAETLYYAMKGAGTDDHTLIRVMVSRSEIDLFNIRKEFRKNFATSLYSMIKGDTSGDYKKALLLLCGEDD
In the case of B2, the “effect on tumor thrombosis / morphology” value [10] is reported as “did not alter tumor morphology” and the “inhibition of factor Xa production” value [11] is reported as 58%.

B3: H6-tTF219-cys-C′: tTF with (His)6 and a Cys after amino acid 219 (protein)
chain: HHHHHHAMALVPRGSGTTNTVAAYNLTWKSTNFKTILEWEPKPVNQVYTVQISTKSGDWKSKCFYTTDTECDLTDEIVKVKQTYLARVFSYPAGNVESTGSAGEPLYENSPEFTPYLETNLGQPTIQSFEQVGTKVNVTVEDRTLVRRNNTFLSLRDVFGKDLIYTLYYWKSSSSGKKTAKTNTNEFLIDVDKGENYCFSVQAVIPSRTVNRKSTDSPVECMGQEKGEFREC
In the case of B3, the “concentration” value [9] is reported as 3 nM.

B4: recombinant, depyrogenated truncated Tissue Factor (amino acids 1-219) of Example X (other, human, UniProt P13726 33-251, looked up)
chain: SGTTNTVAAYNLTWKSTNFKTILEWEPKPVNQVYTVQISTKSGDWKSKCFYTTDTECDLTDEIVKDVKQTYLARVFSYPAGNVESTGSAGEPLYENSPEFTPYLETNLGQPTIQSFEQVGTKVNVTVEDERTLVRRNNTFLSLRDVFGKDLIYTLYYWKSSSSGKKTAKTNTNEFLIDVDKGENYCFSVQAVIPSRTVNRKSTDSPVECMGQEKGEFRE
notes: also called tTF; endotoxin-free tTF
B4: no binding [12].

B5: IgG-H6-N′-cys-tTF219: one molecule of IgG linked via SMPT to one or two molecules of tTF (conjugate)
chain: HHHHHHAMALVPRGSCGTTNTVAAYNLTWKSTNFKTILEWEPKPVNQVYTVQISTKSGDWKSKCFYTTDTECDLTDEIVKDVKQTYLARVFSYPAGNVESTGSAGEPLYENSPEFTPYLETNLGQPTIQSFEQVGTKVNVTVEDERTLVRRNNTFLSLRDVFGKDLIYTLYYWKSSSSGKKTAKTNTNEFLIDVDKGENYCFSVQAVIPSRTVNRKSTDSPVECMGQEKGEFRE
modifications: left off: large carriers
In the case of B5, the “concentration” value [9] is reported as 5 nM, the “coagulation inducing activity lower than reference” value [9] is reported as 5 fold and the “less active than H6-N′-cys-tTF219 at inducing Xa formation” value [13] is reported as 2 fold.

B6: Fab′-H6-N′-cys-tTF219: Fab′ fragment disulfide-linked to H6-N′-cys-tTF219 (conjugate)
chain: HHHHHHAMALVPRGSCGTTNTVAAYNLTWKSTNFKTILEWEPKPVNQVYTVQISTKSGDWKSKCFYTTDTECDLTDEIVKDVKQTYLARVFSYPAGNVESTGSAGEPLYENSPEFTPYLETNLGQPTIQSFEQVGTKVNVTVEDERTLVRRNNTFLSLRDVFGKDLIYTLYYWKSSSSGKKTAKTNTNEFLIDVDKGENYCFSVQAVIPSRTVNRKSTDSPVECMGQEKGEFRE
modifications: left off: another chain or arm of the molecule; large carriers
For B6, the “activity at inducing Xa formation relative to H6-N′-cys-tTF219” value [13] was “as active as H6-N′-cys-tTF219 itself”.

B7: H6-tTF220-cys-C′: tTF219 with Ile-Cys after amino acid 219, (His)6 (protein)
chain: HHHHHHAMALVPRGSGTTNTVAAYNLTWKSTNFKTILEWEPKPVNQVYTVQISTKSGDWKSKCFYTTDTECDLTDEIVKDVKQTYLARVFSYPAGNVESTGSAGEPLYENSPEFTPYLETNLGQPTIQSFEQVGTKVNVTVEDERTLVRRNNTFLSLRDVFGKDLIYTLYYWKSSSSGKKTAKTNTNEFLIDVDKGENYCFSVQAVIPSRTVNRKSTDSPVECMGQEKGEFRE
For B7, the “concentration” value [9] was 0.5 nM.

B8: H6-tTF221-cys-C′ dimer: chemically conjugated disulfide dimer of H6-tTF221-cys-C′ (protein)
chain: HHHHHHAMALVPRGSGTTNTVAAYNLTWKSTNFKTILEWEPKPVNQVYTVQISTKSGDWKSKCFYTTDTECDLTDEIVKDVKQTYLARVFSYPAGNVESTGSAGEPLYENSPEFTPYLETNLGQPTIQSFEQVGTKVNVTVEDERTLVRRNNTFLSLRDVFGKDLIYTLYYWKSSSSGKKTAKTNTNEFLIDVDKGENYCFSVQAVIPSRTVNRKSTDSPVECMGQEKGEFRE
For B8, the “concentration” value [9] was 4 nM and the “coagulation inducing activity lower than reference” value [9] was 4 fold.

B9: tTF221-cys-C′: H6-tTF221-cys-C′ without the (His)6 tag (protein)
chain: GSGTTNTVAAYNLTWKSTNFKTILEWEPKPVNQVYTVQISTKSGDWKSKCFYTTDTECDLTDEIVKDVKQTYLARVFSYPAGNVESTGSAGEPLYENSPEFTPYLETNLGQPTIQSFEQVGTKVNVTVEDERTLVRRNNTFLSLRDVFGKDLIYTLYYWKSSSSGKKTAKTNTNEFLIDVDKGENYCFSVQAVIPSRTVNRKSTDSPVECMGQEKGEFREIFC
For B9, the “concentration” value [9] was 0.5 nM.
